These results are taken from patent US20230014151A1, “COMBINATION ANTIVIRAL THERAPY FOR MEASLES” (The Trustees of Columbia University in the City of New York, priority 2019, published 2023).

The target of assay [1] is measles virus (MeV) fusion protein F, wild type, expressed on cells (measles virus) (UniProt Q786F3). Kind of assay: cell-based or functional assay.
The subject of assay [2] is vesicular stomatitis virus (VSV). The conditions noted are these: 16 h.
Assay [3] has as its target measles virus (MeV) fusion protein F, wild type, expressed on cells (measles virus) (UniProt Q786F3). Kind of assay: cell-based or functional assay. The source holds these as a separate data set.
In assay [4] the test system is viral glycoproteins (H and F); CD150. Kind of assay: beta-galactosidase complementation-based fusion assay, CD150 target cells. The conditions noted are these: for IC90: read-out: CD150 IC90.
Assay [5] addresses viral glycoproteins (H and F); Nectin-4 (Measles virus, UniProt Q786F3). In words: beta-galactosidase complementation-based fusion assay, Nectin-4 target cells.

Like-named read-outs stand apart in the source and are kept apart here. Numbered stars: 1 amine (or outer) side, 2 acyl side, 3 side chain; on linkers, the order of the positions; unused ones are H or OH. Bridge positions count the residues as written; N and C are the ends. Square brackets hold non-standard residues; d marks the D form. Ends that are not written are not given here. Peptide text beside a SMILES is read from it. I, II: the chains in the order shown. * marks the point of attachment. X1 = CC(C)CCC[C@@H](C)[C@H]1CC[C@H]2[C@@H]3CC=C4C[C@@H](OCCN(CCNC(=O)CCOCCOCCOCCOCCNC(=O)CCCN5C(=O)CC([*:1])C5=O)CCNC(=O)CCOCCOCCOCCOCCNC(=O)CCCN5C(=O)CC([*:2])C5=O)CC[C@]4(C)[C@H]3CC[C@]12C; Cbz = O=C(OCc1ccccc1)* Bounds are passed on as bounds.

By IC50 is commonly meant the concentration at which inhibition is half-maximal. Lower therefore signals greater potency in that assay. One may read the IC90 as the concentration at which the effect reaches the 90% level.

Consider FIP-peg4-chol (peptide), for which, in assay [1], the IC50, beta-galactosidase complementation-based fusion assay, Nectin-4 target cells stood at 4 µM and the IC90, beta-galactosidase complementation-based fusion assay, Nectin-4 target cells is 7.62 µM.
For the molecule `CC[C@H](C)[C@H](NC(=O)[C@H](CC(C)C)NC(=O)[C@H](CO)NC(=O)[C@H](Cc1c[nH]cn1)NC(=O)[C@@H](NC(=O)[C@H](CC(C)C)NC(=O)[C@H](CO)NC(=O)[C@@H](NC(=O)[C@H](Cc1ccc(O)cc1)NC(=O)[C@H](CC(N)=O)NC(=O)[C@H](CC(N)=O)NC(=O)[C@@H](NC(=O)[C@H](CCC(=O)O)NC(=O)[C@H](CCCNC(=N)N)NC(=O)[C@H](CC(=O)O)NC(=O)[C@H](Cc1c[nH]c2ccccc12)NC(=O)[C@H](CCC(=O)O)NC(=O)[C@H](CCSC)NC(=O)[C@H](Cc1c[nH]c2ccccc12)NC(=O)CNC(=O)[C@H](CO)NC(=O)CNC(=O)[C@H](CO)NC(=O)CNC(=O)CNC(=O)[C@H](Cc1ccccc1)NC(=O)[C@@H](Cc1ccccc1)NC(=O)OCc1ccccc1)[C@@H](C)CC)[C@@H](C)O)[C@@H](C)CC)C(=O)N[C@@H](CCC(=O)O)C(=O)N[C@@H](CCC(=O)O)C(=O)N[C@@H](CO)C(=O)N[C@@H](CCC(N)=O)C(=O)N[C@@H](CC(N)=O)C(=O)N[C@@H](CCC(N)=O)C(=O)N[C@@H](CCC(N)=O)C(=O)N[C@@H](CCC(=O)O)C(=O)N[C@@H](CCCCN)C(=O)N[C@@H](CC(N)=O)C(=O)N[C@@H](CCC(=O)O)C(=O)N[C@@H](CCC(N)=O)C(=O)N[C@@H](CCC(=O)O)C(=O)N[C@@H](CC(C)C)C(=O)N[C@@H](CC(C)C)C(=O)NCC(=O)N[C@@H](CO)C(=O)NCC(=O)N[C@@H](CO)C(=O)NCC(=O)N[C@@H](CSC1CC(=O)N(CCCC(=O)NCCOCCOCCOCCOCCC(=O)NCCN(CCNC(=O)CCOCCOCCOCCOCCNC(=O)CCCN2C(=O)CC(SC[C@H](NC(=O)CNC(=O)[C@H](CO)NC(=O)CNC(=O)[C@H](CO)NC(=O)CNC(=O)[C@H](CC(C)C)NC(=O)[C@H](CC(C)C)NC(=O)[C@H](CCC(=O)O)NC(=O)[C@H](CCC(N)=O)NC(=O)[C@H](CCC(=O)O)NC(=O)[C@H](CC(N)=O)NC(=O)[C@H](CCCCN)NC(=O)[C@H](CCC(=O)O)NC(=O)[C@H](CCC(N)=O)NC(=O)[C@H](CCC(N)=O)NC(=O)[C@H](CC(N)=O)NC(=O)[C@H](CCC(N)=O)NC(=O)[C@H](CO)NC(=O)[C@H](CCC(=O)O)NC(=O)[C@H](CCC(=O)O)NC(=O)[C@@H](NC(=O)[C@H](CC(C)C)NC(=O)[C@H](CO)NC(=O)[C@H](Cc3c[nH]cn3)NC(=O)[C@@H](NC(=O)[C@H](CC(C)C)NC(=O)[C@H](CO)NC(=O)[C@@H](NC(=O)[C@H](Cc3ccc(O)cc3)NC(=O)[C@H](CC(N)=O)NC(=O)[C@H](CC(N)=O)NC(=O)[C@@H](NC(=O)[C@H](CCC(=O)O)NC(=O)[C@H](CCCNC(=N)N)NC(=O)[C@H](CC(=O)O)NC(=O)[C@H](Cc3c[nH]c4ccccc34)NC(=O)[C@H](CCC(=O)O)NC(=O)[C@H](CCSC)NC(=O)[C@H](Cc3c[nH]c4ccccc34)NC(=O)CNC(=O)[C@H](CO)NC(=O)CNC(=O)[C@H](CO)NC(=O)CNC(=O)CNC(=O)[C@H](Cc3ccccc3)NC(=O)[C@@H](Cc3ccccc3)NC(=O)OCc3ccccc3)[C@@H](C)CC)[C@@H](C)O)[C@@H](C)CC)[C@@H](C)CC)C(=O)O)C2=O)CCO[C@H]2CC[C@@]3(C)C(=CC[C@H]4[C@@H]5CC[C@H]([C@H](C)CCCC(C)C)[C@@]5(C)CC[C@@H]43)C2)C1=O)C(=O)O` (stereo partly drawn) [FIP HIV], the IC50 in assay [2] was more than 5 µM.
In assay [1], FIP-HRC450-485-peg4-chol (peptide) showed an IC50, beta-galactosidase complementation-based fusion assay, Nectin-4 target cells of 0.214 µM and an IC90, beta-galactosidase complementation-based fusion assay, Nectin-4 target cells of 0.614 µM.
As for FIP-HRC450-485-chol (peptide), the values for the IC50, beta-galactosidase complementation-based fusion assay, Nectin-4 target cells in assay [3] and in assay [1] were 0.251 µM and 0.214 µM, respectively. Moreover, the IC90, beta-galactosidase complementation-based fusion assay, Nectin-4 target cells in assay [3] is 0.446 µM; in assay [1] it was 0.614 µM.
In the same order, the values of FIP-chol (peptide) are more than 10 µM, 4 µM, more than 10 µM and 7.62 µM.
In assay [1], HRC450-485-peg4-chol (peptide) returned an IC50, beta-galactosidase complementation-based fusion assay, Nectin-4 target cells of 0.123 µM and an IC90, beta-galactosidase complementation-based fusion assay, Nectin-4 target cells of 0.856 µM.
For “I: Cbz-[dF]FGGSGSGVALDPIDISIVLNKIKSDLEESKEWIRRSNKILDSIGSGSGC / II: Cbz-[dF]FGGSGSGVALDPIDISIVLNKIKSDLEESKEWIRRSNKILDSIGSGSGC (linker I:50-II:50 via X1; N-terminus assumed) [FIP VI KI]”, the half-maximal inhibitory concentration (IC50) in assay [2] was more than 5 µM.
On to `CC[C@H](C)[C@H](NC(=O)[C@H](C)NC(=O)[C@H](CC(N)=O)NC(=O)CNC(=O)[C@H](CC(C)C)NC(=O)[C@H](CC(N)=O)NC(=O)[C@@H](NC(=O)CNC(=O)[C@@H](NC(=O)[C@H](CC(=O)O)NC(=O)[C@H](CC(C)C)NC(=O)[C@H](CCCNC(=N)N)NC(=O)[C@H](CCC(=O)O)NC(=O)[C@H](CC(C)C)NC(=O)[C@H](CO)NC(=O)[C@@H](NC(=O)[C@@H]1CCCN1C(=O)[C@@H]1CCCN1C(=O)CNC(=O)[C@H](CO)NC(=O)CNC(=O)[C@H](CO)NC(=O)CNC(=O)CNC(=O)[C@H](Cc1ccccc1)NC(=O)[C@@H](Cc1ccccc1)NC(=O)OCc1ccccc1)[C@@H](C)CC)C(C)C)[C@@H](C)O)C(=O)N[C@@H](C)C(=O)N[C@@H](CCCCN)C(=O)N[C@@H](CC(C)C)C(=O)N[C@@H](CCC(=O)O)C(=O)N[C@@H](CC(=O)O)C(=O)N[C@@H](C)C(=O)N[C@@H](CCCCN)C(=O)N[C@@H](CCC(=O)O)C(=O)N[C@@H](CC(C)C)C(=O)N[C@@H](CC(C)C)C(=O)N[C@@H](CCC(=O)O)C(=O)N[C@@H](CO)C(=O)N[C@@H](CO)C(=O)N[C@@H](CC(=O)O)C(=O)N[C@@H](CCC(N)=O)C(=O)N[C@H](C(=O)N[C@@H](CC(C)C)C(=O)N[C@@H](CCCNC(=N)N)C(=O)N[C@@H](CSC1CC(=O)N(CCC(=O)NCCOCCOCCOCCOCCOCCOCCOCCOCCOCCOCCOCCNC(=O)CCN2C(=O)CC(SC[C@H](NC(=O)[C@H](CCCNC(=N)N)NC(=O)[C@H](CC(C)C)NC(=O)[C@@H](NC(=O)[C@H](CCC(N)=O)NC(=O)[C@H](CC(=O)O)NC(=O)[C@H](CO)NC(=O)[C@H](CO)NC(=O)[C@H](CCC(=O)O)NC(=O)[C@H](CC(C)C)NC(=O)[C@H](CC(C)C)NC(=O)[C@H](CCC(=O)O)NC(=O)[C@H](CCCCN)NC(=O)[C@H](C)NC(=O)[C@H](CC(=O)O)NC(=O)[C@H](CCC(=O)O)NC(=O)[C@H](CC(C)C)NC(=O)[C@H](CCCCN)NC(=O)[C@H](C)NC(=O)[C@@H](NC(=O)[C@H](C)NC(=O)[C@H](CC(N)=O)NC(=O)CNC(=O)[C@H](CC(C)C)NC(=O)[C@H](CC(N)=O)NC(=O)[C@@H](NC(=O)CNC(=O)[C@@H](NC(=O)[C@H](CC(=O)O)NC(=O)[C@H](CC(C)C)NC(=O)[C@H](CCCNC(=N)N)NC(=O)[C@H](CCC(=O)O)NC(=O)[C@H](CC(C)C)NC(=O)[C@H](CO)NC(=O)[C@@H](NC(=O)[C@@H]3CCCN3C(=O)[C@@H]3CCCN3C(=O)CNC(=O)[C@H](CO)NC(=O)CNC(=O)[C@H](CO)NC(=O)CNC(=O)CNC(=O)[C@H](Cc3ccccc3)NC(=O)[C@@H](Cc3ccccc3)NC(=O)OCc3ccccc3)[C@@H](C)CC)C(C)C)[C@@H](C)O)[C@@H](C)CC)[C@@H](C)CC)C(=O)O)C2=O)C1=O)C(=O)O)[C@@H](C)CC` (stereo partly drawn) [[FIP-HRC450-485]2-peg11 (no GSGSG)], for which the IC90 in assay [4] and in assay [5] (read-out: Nectin4 IC90) was more than 1 µM in each case.
On to FIP-HRC450-485 (peptide), for which the IC90, beta-galactosidase complementation-based fusion assay, Nectin-4 target cells in assay [3] is more than 10 µM. Moreover, the IC50, beta-galactosidase complementation-based fusion assay, Nectin-4 target cells in assay [1] worked out at 4.24 µM.
Regarding HRC450-485 (peptide), in assay [1], the IC50, beta-galactosidase complementation-based fusion assay, Nectin-4 target cells was more than 10 µM and the IC90, beta-galactosidase complementation-based fusion assay, Nectin-4 target cells was more than 10 µM.
As for `CC(C)CCC[C@@H](C)[C@H]1CC[C@H]2[C@@H]3CC=C4C[C@@H](OCCN(CCNC(=O)CCOCCOCCOCCOCCNC(=O)CCCN5C(=O)CC(SC[C@H](NC(=O)CNC(=O)[C@H](CO)NC(=O)CNC(=O)[C@H](CO)NC(=O)CNC(=O)CNC(=O)[C@H](Cc6ccccc6)NC(=O)[C@@H](Cc6ccccc6)NC(=O)OCc6ccccc6)C(=O)O)C5=O)CCNC(=O)CCOCCOCCOCCOCCNC(=O)CCCN5C(=O)CC(SC[C@H](NC(=O)CNC(=O)[C@H](CO)NC(=O)CNC(=O)[C@H](CO)NC(=O)CNC(=O)CNC(=O)[C@H](Cc6ccccc6)NC(=O)[C@@H](Cc6ccccc6)NC(=O)OCc6ccccc6)C(=O)O)C5=O)CC[C@]4(C)[C@H]3CC[C@]12C` (stereo partly drawn) [[FIP-peg4]2-chol] (I: Cbz-[dF]FGGSGSGC-OH / II: Cbz-[dF]FGGSGSGC-OH; linker I:9-II:9 via X1), the IC50 in assay [4] stood at 0.51 ± 0.36 µM; in assay [5] (IC50, Table 2 (salient peptides), Nectin-4 target cells), 0.452 ± 0.196 µM. The IC90 in assay [4] was 0.927 ± 0.359 µM; in assay [5], 1.845 ± 0.016 µM; in assay [5] (read-out: Nectin4 IC90), 1.845 ± 0.016 µM.
In assay [3], HRC450-485-chol (peptide) yielded an IC50, beta-galactosidase complementation-based fusion assay, Nectin-4 target cells of 0.103 µM and an IC90, beta-galactosidase complementation-based fusion assay, Nectin-4 target cells of more than 1 µM. This molecule also had an IC90, beta-galactosidase complementation-based fusion assay, Nectin-4 target cells in assay [1] of more than 7 µM.
